Data published in patent US20240252641A1 (TCR2 THERAPEUTICS, published 2024).

T1: CD70 on cells (CHO-CD70, JVM-3, U266, Raji, THP-1, T cells) (human, UniProt P32970 1-193)
T1 construct: whole, on cells; also called cell-surface CD70
T1 sequence (looked up): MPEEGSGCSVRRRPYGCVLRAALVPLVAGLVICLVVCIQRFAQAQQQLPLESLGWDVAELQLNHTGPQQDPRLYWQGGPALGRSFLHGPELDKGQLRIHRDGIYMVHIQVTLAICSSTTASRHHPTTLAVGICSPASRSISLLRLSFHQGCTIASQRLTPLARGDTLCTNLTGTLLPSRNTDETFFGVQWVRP

T2: human CD70, recombinant, N-terminally biotinylated (residues 39-193) (human, UniProt P32970 39-193, N-terminal biotin)
T2 construct: range 39-193; the same entry is used there; also called biotinylated human CD70; CD70 biotin
T2 sequence (looked up): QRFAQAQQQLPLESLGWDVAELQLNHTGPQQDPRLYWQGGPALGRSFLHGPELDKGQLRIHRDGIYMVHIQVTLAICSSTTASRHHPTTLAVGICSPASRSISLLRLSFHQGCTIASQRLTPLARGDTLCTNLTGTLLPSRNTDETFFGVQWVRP


Experiments:
[1] = target: T1, CD70 on cells (CHO-CD70, JVM-3, U266, …); test: 1.25 µg/mL scFv on U266 cells
How it was run: (§1)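 Human scFv antibodies were raised by panning a naïve human library against the CD70 extracellular domain (aa39-193). They were tested for binding to tumour cell lines with high CD70 expression (CHO-CD70, JVM3, U266) and low CD70 expression (CHO WT, K562). Cell binding was recorded per cell line, and the detection method is not stated.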

[2] = target: T2, human CD70, recombinant, N-terminally …; test: CD27 blocking ELISA, 3 µM scFv, anti-His/HRP; further: unit not given here
Description: Human scFv antibodies binding CD70 were generated by panning a naïve human library with the extracellular domain (aa39-193) of CD70. 53 antibodies were identified. The ability of CD27 to block CD70 binding of the identified antibodies was measured by ELISA using two different assays. In the first assay, CD27 and his-tagged scFv anti-CD70 binders were simultaneously added to surface bound CD70, and the ability of the scFv binders to bind CD70 was detected with anti-His HRP. In the second assay, plate-bound CD70 was pre-incubated with CD27 for 30 minutes, and then additional CD27 and the his-tagged scFv anti-CD70 binder was added. The ability of the scFv binders to bind CD70 was detected with anti-His HRP. FIG. 34 is a schematic of the two different CD27 blocking assays. CD70 affinity was also measured by SPR analysis. scFv antibodies were also tested for their ability to bind tumor cell lines with high (CHO-CD70, JVM3, and U266) and low levels (CHO WT and K562 of CD70 expression. Results for 39 antibodies are shown in Table 1 below.

[3] = target: T1, CD70 on cells (CHO-CD70, JVM-3, U266, …); test: 1.25 µg/mL scFv on JVM-3 cells
How it was run: as §1

[4] = target: T2, human CD70, recombinant, N-terminally …; test: CD27 blocking ELISA, 3 µM scFv, strep/HRP
[5] = target: T1, CD70 on cells (CHO-CD70, JVM-3, U266, …); test: 1.25 µg/mL scFv on CHO-CD70 cells
How it was run: as §1

[6] = target: T2, human CD70, recombinant, N-terminally …; test: SPR
How it was run: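 The scFv antibodies are human and were isolated by panning a naïve human library on the extracellular domain of CD70 (aa39-193). Their affinity (Kd) was measured by surface plasmon resonance analysis. The binding partner was recombinant human antigen biotinylated at the N-terminus.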

[7] = target: T1, CD70 on cells (CHO-CD70, JVM-3, U266, …); test: on JVM-3 cells
[8] = target: T1, CD70 on cells (CHO-CD70, JVM-3, U266, …); test: on Raji cells
[9] = target: T1, CD70 on cells (CHO-CD70, JVM-3, U266, …); test: on U266 cells

| Binder | cell binding [1] | anti His/HRP [2] | cell binding [3] | strep/HRP [4] | cell binding [5] | Kd [6] [nM] | cell binding [7] | cell binding [8] | cell binding [9] |
| --- | --- | --- | --- | --- | --- | --- | --- | --- | --- |
| 14-TC4-III-A04 (scFv, His-tagged) scFv: QVQLVQSGAEVKKPGASVKVSCKASGYTFTGYYMNWVRQAPGQGLEWMAWINPNTGDTNYAQKFQGRVTMTRDTSINTAYIELSRLTSDDTAVYYCARVGDYYDRSGYYRHDAFDIWGQGTMVTVSSGGSGGSGGSGGSSSELTQDPAVSVALGQTVRITCQGDSLRSYYASWYQQKPGQAPVLVIYGKNNRPSGIPDRFSGSSSGNTASLTITGAQAEDEADYYCQAWDSSTGVFGGGTKVTVL | 20400 | 2.81 | 17000 | 0.359 | 610000 | 13.7 | – | – | – |
| 1-TC4-I-C10 (scFv, His-tagged; also called 1867) scFv: EVQLVQSGAEVKKPGESLKISCKGSGYSFTSYWIGWVRQMPGKGLEWMGIIYPGDSDTRYSPSFQGQVTISADKSISTAYLQWSSLKASDTAMYYCAISRTESYVMDVWGQGTTVTVSSGGSGGSGGSGGSQSALTQPRSVSGSPGQSVTISCTGTSSDVGGYNYVSWYQQHPGKAPKLMIYDVTNRPSGVPDRFSASKSDNTATLTVSGVQAEDEADYYCSSYAGSHELFGGGTKLTVL | 48800 | 2.83 | 73300 | 0.075 | 978000 | 6.17 | – | – | – |
| 14-TC6-I-F03 (scFv, His-tagged) scFv: QVQLVQSGAEVKKPGASVKVSCKASGYTFTGYYMNWVRQAPGQGLEWMAWINPNTGDTNYAQKFQGRVTMTRDTSINTAYIELSRLTSDDTAVYYCARVGDYYDRSGYYRHDAFDIWGQGTMVTVSSGGSGGSGGSGGSSSELTQDPAVSVALGQTVRITCQGDSLRSYYASWYQQKPGQAPVLVIYGKNNRPSGIPDRFSGSNSGNTATLTISGTQAMDEADYYCQAWDSSTVFGGGTKVTVL | 1430 | 2.47 | 1880 | 0.954 | 33400 | 289 | – | – | – |
| 14-TC4-XIII-A01 (scFv, His-tagged) scFv: QVQLVQSGAEVKKPGASVKVSCKASGYTFTGYYMNWVRQAPGQGLEWMAWINPNTGDTNYAQKFQGRVTMTRDTSINTAYIELSRLTSDDTAVYYCARVGDYYDRSGYYRHDAFDIWGQGTMVTVSSGGSGGSGGSGGSSSELTQDPAVSVALGQTVRITCQGDSLRSYYASWYQQKPGQAPVLVIYGKNNRPSGIPDRFSGSSSGNTASLTITGAQAMDEADYYCQAWDSSTGVVFGGGTKVTVL | 953 | 1.74 | 1290 | 1.46 | 111000 | 2830 | – | – | – |
| 58-TC7-III-G11 (scFv, His-tagged) scFv: EVQLVQSGGGVVQPGRSLRLSCAASGFTFSSYAMHWVRQAPGKGLEWVAVISYDGSNKYYADSVKGRFTISRDNSKNTLYLQMNSLRAEDTAVYYCATNSGYDSDYYYGMDVWGQGTTVTVSSGGSGGSGGSGGSQSVLTQPPSMSGAPGQRVTISCTGSSSNIGAGYDVHWYQHLPGTGPKLLIHGNTNRPSGVPDRFSGSKSGTSASLAITGLQAEDEADYYCQSYDNSLGGYVVFGGGTKVTVL | 12000 | 1.97 | 14700 | 0.503 | 277000 | 8900 | – | – | – |
| 30-TC1.2-I-C08-1 (scFv, His-tagged) scFv: QMQLVQSGAEVKKPGASVKVSCKASGYTFTSYGISWVRQAPGQGLEWMGWINPNTGGTDYAQKFQGRVTITRDTSITTGYMELSRLRSDDTAVYYCARHYYYGMDVWGQGTTVTVSSGGSGGSGGSGGSDIQLTQSPSSLSASVGDRVTITCQASQDISNYLNWYQQKPGKAPKLLIYDASNLETGVPSRFSGSGSGTDFTFTISSLQPEDIATYYCQQYDNLPLTFGGGTKVEIK | 17400 | 1.83 | 37400 | 1.5 | 503000 | 67.3 | – | – | – |
| 9A1 (antibody, V domains shown, alloy mouse hybridoma antibody; also called 9A1H6) VH: QVQLVQSGAEVKKPGASVKVSCKASGYSFTGYYMHWVRQAPGQGLEWMGWINPKSGGTSYAQQFQGRVTMTRDTSMSTVYMELTRLRADDTAVYYCARLYYSGWYGDYWGQGTLVTVSS VL: DIQMTQSPSSLSASVGDRVTITCQASQDINNYLNWYQQKPGKVPNLLIYDASNLETGVPSRFSGSGSGTDFTFTISSLQPEDIATYYCQQYNNPPITFGQGTRLEIK | – | – | – | – | – | – | 401000 | 139000 | 324000 |
| 59-TC4-VII-F02 (scFv, His-tagged) scFv: QLQLQESGPGLVKPSGTLSLTCAVSGGSISSSNWWSWVRQPPGKGLEWIGEIYHSGSTNYNPSLKSRVTISVDKSKNQFSLKLSSVTAADTAVYYCAGPGPDPNDAFDIWGQGTMVTVSSGGSGGSGGSGGSSSELTQDPAVSVALGQTVRITCQGDSLRSYYASWYQQLPGTAPKLLIYQDSKRPSGIPERFSGSNSGNTATLTISGTQAMDEADYYCQAWDSSTAVFGGGTKLTVL | 18500 | 2.06 | 52100 | 1.43 | 850000 | 101 | – | – | – |
| 13-TC7-I-E11 (scFv, His-tagged) scFv: QVQLQQWGAGLLKPSETLSLTCAVYGGSFSGYYWSWIRQPPGKGLEWIGEINHSGSTNYNPSLKSRVTISVDTSKNQFSLKLSSVTAADTAVYYCARSRRPYWYFDLWGRGTLVTVSSGGSGGSGGSGGSQSVLTQPPSVSGAPGQRVTISCTGSSSNIGAGYDVHWYQQLPGTAPKLLIYGDSNRPSGVPDRFSGSGSGTSASLAITGLQAEDEGDYYCQSFDSNLSRYVFGAGTKLTVL | 32000 | 2.29 | 80500 | 1.42 | 532000 | 44.7 | – | – | – |
| 43-TC4-VII-C04 (scFv, His-tagged) scFv: QVQLLESGGGLVQPGRSLRLSCAASGFTFDDYAMHWVRQAPGKGLEWVSGISWNSGSIGYADSVKGRFTISRDNAKNSLYLQMNSLRAEDTAVYYCARDLVYYYGMDVWGQGTTVTVSSGGSGGSGGSGGSQSVLTQPPSVSGTPGQGVSISCSGSSSNIGWKTVNWYQQVPGMAPKLLIYSDNQRPSGVPDRFSGSKSATSASLAISGLQSEDEADYYCASWDASVNAPVFGGGTKLTVL | 20000 | 1.81 | 45000 | 1.44 | 723000 | 69.9 | – | – | – |
| 13G6 (antibody, V domains shown, alloy mouse hybridoma antibody; also called 13G6E8) VH: QVQLVESGGGVVQPGKSLRLSCAASGFTFSNYGIHWVRQAPGKGLEWVAVIWYDGSYKYYADSVKGRFTISRDNSKNTLYLQMNSLRAEDTALYYCARDTVDTYGSFDYWGQGTLVTVSS VL: DIQLTQSPSFLSASVGDRVTITGRASQGISSYLAWYQQKPGKAPNLLIYAASTLQSGVPSRFSGSGSGTEFTLTISSLQPEDFATYYCQQHNRYPITFGQGTRLEIK | – | – | – | – | – | – | 479000 | 144000 | 389000 |
| 9A11 (antibody, V domains shown, alloy mouse hybridoma antibody; also called 9A11E8) VH: QVQLVESGGGVVQPGRSLRLSCAASGFTFSNYGMYWVRQAPGKGLEWVAVIWYDGSKKYYGDSVKGRFTISRDNSKNTLYLQMNSLRAEDTAVYYCARDEDTVMASFDYWGQGTLVTVSS VL: DIQLTQSPSFLSASVGDRVTITCRASQDISIYLAWYQQKPGKAPQLLIYAASTLQSGVPSRFSGSGSGTEFTLTISSLQPEDFATYSCQQLNSYPITFGGGTKVEIK | – | – | – | – | – | – | 410000 | 145000 | 351000 |
